Kd, Km and Vmax data for 7 molecules are collected here from article PMC10227063 (Communications Biology, 2023).

Substitutions are numbered along the chain they refer to. Names may count otherwise.

Data set [1] has as its target T1, YfkE (Bacillus subtilis, UniProt O34840).
T1 construct: gene chaA
Put plainly: biochemical.

Substrate in data set [2]: O=P(O)(O)O
The data set can be described thus: cells, lysate or membranes. To be noted: outward H+ gradient by NADH, room temperature, labelled compound.

Setting [3] is: co-substrate Ca2+, residue printed R3 in table but R4 in text.
The mark [4] stands for this setting: co-substrate Ca2+, 5x more vesicles than WT.

As a reminder, the Kd is the free concentration of one partner at which half of the binding sites on the other are occupied at equilibrium, for simple one-to-one binding. A high value points to a looser complex. By Km is commonly meant the concentration of substrate that gives half-maximal velocity. As usually defined, the Vmax is the top rate of the reaction or transport when substrate is in excess.

As for `O=P(O)(O)O` [inorganic phosphate], in data set [1], the Kd came to 930 ± 360 µM.

B1: YfkE (Bacillus subtilis subsp. subtilis str. 168) (protein)
chain: MNRIFFILVAAGVPLSVIGSLMHWPSAVLFAVYCVTIIALASYMGRATESLSIIAGPRIGGLLNATFGNAVELIISLFALKEGLTGIVLASLTGSVLGNLLLVAGLSFFVGGLKYKRQEFNIHDARHNSGLLIFAIIVAFVIPEVFSVGMGNASKLNLSIGISIIMILLYVAALYFKLVTHRGVYQPNNAAQTEEEEEPEWSGKVATIVLFAATIVVAYISENLVHTFHSVAEQFGWSELFIGVIIVAIVGNAAEHASAIIMAFKNKMDIAVEIAVGSTLQIAMFVAPVLVICSIFFPTSMPLVFTLPELVAMVSAVLLMIAISNDGDSNWFEGATLLAAYVIMAIGFFLL
Consider B1, for which, in data set [2] (co-substrate Ca2+ 0.1 mM), the Km is listed as 4.9 mM.

B2: YfkE (Bacillus subtilis subsp. subtilis str. 168; R3A) (protein)
chain: B1 chain with R3A
As to B2, in data set [2] (setting [3]), the Km is 5.5 mM and the Vmax was determined as 7.5e-05 µmol/min/mg.

B3: YfkE (Bacillus subtilis subsp. subtilis str. 168; H256A) (protein)
chain: B1 chain with H256A
For the molecule B3, in data set [2] (setting [4]), the Km is on record as 34.2 mM and the Vmax stood at 5.1e-05 µmol/min/mg.

B4: YfkE (Bacillus subtilis subsp. subtilis str. 168; Q281A) (protein)
chain: B1 chain with Q281A
With B4, in data set [2] (setting [4]), the Km stood at 29.9 mM and the Vmax was 1.9e-05 µmol/min/mg.

B5: YfkE (Bacillus subtilis subsp. subtilis str. 168; N252A) (protein)
chain: B1 chain with N252A
With B5, in data set [2] (setting [4]), the Michaelis constant (Km) is 8.2 mM and the Vmax was determined as 1.9e-05 µmol/min/mg.

B6: YfkE (Bacillus subtilis subsp. subtilis str. 168; N99A) (protein)
chain: B1 chain with N99A
With B6, in data set [2] (setting [4]), the Km amounted to 12.4 mM and the Vmax was found to be 3.9e-05 µmol/min/mg.
